Assays:
[1] = biological target: T1, YLOV (Apo-YLOV; LOV domain of YtvA, aa 1-128) (Bacillus subtilis, UniProt O34627, M1G); experiment: isothermal titration calorimetry; type: binding; settings: 25 °C; 20 mM Tris-HCl pH 7.5, 150 mM NaCl, 500 µM TCEP; dark; apoprotein titrated into flavin; single-site global fit; brackets 95% confidence interval
T1 construct: gene pfyP; LOV domain with N-terminal cap, aa 1-128; apo form in monomer-dimer equilibrium; 15N-labelled for ITC
T1 sequence (O34627 1-128 M1G): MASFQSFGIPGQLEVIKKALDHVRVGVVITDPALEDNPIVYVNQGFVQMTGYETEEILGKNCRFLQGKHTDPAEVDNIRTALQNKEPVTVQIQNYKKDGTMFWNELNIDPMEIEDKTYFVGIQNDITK
From the text: isothermal titration calorimetry on YLOV (Apo-YLOV; LOV domain of YtvA, aa 1-128)

YtvA (Bacillus subtilis) = YtvA (Bacillus subtilis) (UniProt O34627); settings: cited from earlier work
[2] = biological target: YtvA LOV domain 21-147 (Bacillus subtilis) (UniProt O34627); settings: cited from earlier work
[3] = biological target: the molecule itself; experiment: AUC; sedimentation velocity, 45,000 rpm, 25 °C, absorbance at 280 nm; Apo-YLOV at 17.5, 35 and 70 µM in buffer G (20 mM Tris-HCl pH 7.5, 150 mM NaCl, 500 µM TCEP); c(S) analysis with Sedfit; dimer to monomers; the KD is called only an estimate
[4] = biological target: the molecule itself; experiment: AUC; sedimentation velocity, 45,000 rpm, 20 °C, absorbance at 280 nm; Apo-YtvA at 15, 30 and 60 µM in buffer H (20 mM K-phosphate pH 6.5, 50 mM NaCl, 5 mM DTT, 0.1% azide); c(S) analysis with Sedfit; dimer to monomers

## Cc1cc2nc3c(=O)[nH]c(=O)nc-3n(C[C@H](O)[C@H](O)[C@H](O)COP(=O)(O)O)c2cc1C [FMN]
[1]
  Kd: 715 nM

## Cc1cc2nc3c(=O)[nH]c(=O)nc-3n(C[C@H](O)[C@H](O)[C@H](O)COP(=O)(O)OP(=O)(O)OC[C@H]3O[C@@H](n4cnc5c(N)ncnc54)[C@H](O)[C@@H]3O)c2cc1C [FAD]
[1]
  Kd: 224 nM

## YtvA (from UniProt O34627)
YtvA (Bacillus subtilis)
  Kd: < 300 nM

## YtvA LOV domain 21-147 (from UniProt O34627)
[2]
  Kd: < 200 nM

## Cc1cc2nc3c(=O)[nH]c(=O)nc-3n(C[C@H](O)[C@H](O)[C@H](O)CO)c2cc1C [RF]
[1]
  Kd: 351 nM

B1: Apo-YLOV (deflavinated extended LOV domain of YtvA, aa 1 – 128) (domain or fragment, Bacillus subtilis, UniProt O34627 1-128, looked up)
chain: GASFQSFGIPGQLEVIKKALDHVRVGVVITDPALEDNPIVYVNQGFVQMTGYETEEILGKNCRFLQGKHTDPAEVDNIRTALQNKEPVTVQIQNYKKDGTMFWNELNIDPMEIEDKTYFVGIQNDITK
notes: YtvA, blue-light photoreceptor of Bacillus subtilis, residues 1-128 (N-terminal cap and LOV domain); TEV cleavage leaves a Gly at the N-terminus; the forward primer reads Gly-Ala-Ser-Phe-Gln, so the Gly stands in the place of Met1; also called YtvA-LOV domain; not shown: His tag, N-terminal, cleaved
[3]
  Kd: ~14 µM
  stoichiometry N: 2

B2: Apo-YtvA (deflavinated full length YtvA, aa 1 – 261) (natural protein, Bacillus subtilis, UniProt O34627 1-261, looked up)
chain: GASFQSFGIPGQLEVIKKALDHVRVGVVITDPALEDNPIVYVNQGFVQMTGYETEEILGKNCRFLQGKHTDPAEVDNIRTALQNKEPVTVQIQNYKKDGTMFWNELNIDPMEIEDKTYFVGIQNDITKQKEYEKLLEDSLTEITALSTPIVPIRNGISALPLVGNLTEERFNSIVCTLTNILSTSKDDYLIIDLSGLAQVNEQTADQIFKLSHLLKLTGTELIITGIKPELAMKMNKLDANFSSLKTYSNVKDAVKVLPIM
notes: YtvA, blue-light photoreceptor of Bacillus subtilis, full length, residues 1-261 (LOV domain aa 21-126, Jα-helix aa 127-147, STAS domain aa 148-261); Met1 replaced by the Gly left after TEV cleavage; source: TEV cleavage; not shown: His tag, N-terminal, cleaved
[4]
  stoichiometry N: 2
